The results in this text go back to US20260347486 (published 2026).

Holding throughout (experiment): BLI
For one assay, the target named is T1, IL-18Rα ECD (human).
T1 chain: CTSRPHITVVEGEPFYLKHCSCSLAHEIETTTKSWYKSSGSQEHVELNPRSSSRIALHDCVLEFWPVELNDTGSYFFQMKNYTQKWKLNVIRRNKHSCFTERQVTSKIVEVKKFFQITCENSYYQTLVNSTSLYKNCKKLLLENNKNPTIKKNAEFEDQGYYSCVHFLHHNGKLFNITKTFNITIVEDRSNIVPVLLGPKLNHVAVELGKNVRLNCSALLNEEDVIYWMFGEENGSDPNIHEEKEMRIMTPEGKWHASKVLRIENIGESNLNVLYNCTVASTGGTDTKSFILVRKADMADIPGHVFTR

In another assay the target is T2, IL-18Rβ ECD (human).
T2 chain: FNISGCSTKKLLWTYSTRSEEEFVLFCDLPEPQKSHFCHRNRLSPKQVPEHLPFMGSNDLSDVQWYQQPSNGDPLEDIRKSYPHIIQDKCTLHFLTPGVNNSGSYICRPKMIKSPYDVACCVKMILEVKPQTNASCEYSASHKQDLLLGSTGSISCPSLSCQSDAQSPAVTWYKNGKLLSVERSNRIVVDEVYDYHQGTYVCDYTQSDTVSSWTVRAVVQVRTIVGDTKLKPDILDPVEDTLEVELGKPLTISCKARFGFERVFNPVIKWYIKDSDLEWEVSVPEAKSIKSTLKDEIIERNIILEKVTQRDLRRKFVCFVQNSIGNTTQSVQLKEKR

Another assay concerns the target IL-18BP (human).

Where a chain is given by its changes, count along the chain named.

B1: ms_IL18R_VHHβ12 (antibody, V domains shown)
VH: DVPLQESGGGLVQPGGSLRLSCRASGVGFSIYTMGWYRQAPGEQRHLVATVTTGGHINYGDSVQGRFTISRENNGNVVELQMHSLKPEDTAVYFCNAIYFGQDIWGQGTQVTVSS
For B1, the binding result with IL-18Rα ECD was “no binding”.

B2: ms_IL18R_VHHα2 (antibody, V domains shown)
VH: DVQLQESGGGLVQAGGSLRLSCAASGFTLLDSYDIGWFRQAPGKKREEVSCISSSGGKSTYYADSVKGRFTISRDNANNTVYLQMNSLKPEDTAVYYCAADGAEGFWSCQSGGYDYWGQGTQVTVSS
For B2, the binding result in the assay with IL-18Rβ ECD is given as “no binding”.

B3: IL18R_tanVHHα2β15 (antibody, V domains shown)
V domain 1: B2 VH
V domain 2: DVQLQESGGGLVQPGGSLRLSCAASGRFFTINAMGWYRQTPGKQRELVAAITSDGSTTYQDSVKGRFTISRDNANRTANLYMNSLKSEDTAVYYCNADGRFNDNGYVKNFNIWGQGTQVTVSS
With B3, the binding result with IL-18BP was “no binding”.

B4: IL18R_tanVHHβ15α2 (antibody, V domains shown)
V domain 1: B3 V domain 2
V domain 2: B2 VH
B4: the binding result with IL-18BP was “no binding”.

B5: ms_IL18R_VHHβ20 (antibody, V domains shown)
VH: DVQLQESGGGLVQAGGSLRLSCAASVSAFRLKVMGWYRQAPGKEREFVAAIDSGDTKSYTNAVKGRFTISGGAATNTVVLQMNSLKPEDTAFYYCNAVLFGRDYWGQGTQVTVSS
As for B5, the binding result in the assay with IL-18Rα ECD is recorded as “no binding”.

B6: ms_IL18R_VHHβ15 (antibody, V domains shown)
VH: B3 V domain 2
B6: in the assay with IL-18Rα ECD, the binding result was “no binding”.

B7: ms_IL18R_VHHβ18 (antibody, V domains shown)
VH: DVQLQESGGGLVQAGGSLRLSCAASGRTFSSYAMGWFRQAPGMVREFVAAISWSGGSTYYADSVQGRFTISRDNAKNTVYLQMNSLKPEDTAVYYCAADRSLSGSYFGATIDYWGQGTQVTVSS
Turning to B7, the binding result with IL-18Rα ECD is reported as “no binding”.

B8: ms_IL18R_VHHβ14 (antibody, V domains shown)
VH: DVPLQESGGGLVQAGGSLRLSCAASDRTVSKGAMGWFRQAPGKEREFVATIGRSSGITYYADSVKGRFTISRDNAKNTWYLQMNSLRPEDTAVYYCAADSSGIIRTTSWAYDYWGQGTQVTVSS
Take B8: in the assay with IL-18Rα ECD, the binding result is on record as “no binding”.

B9: ms_IL18R_VHHα4 (antibody, V domains shown)
VH: DVQLQESGGGLVQAGGSLRLSCAASGFTLGAYAINWFQQAPGKERARAWVLCITSSGGSAYYVDSVKGRFTVSRDNAKNTVYLQMNSLKPEDTAFYYCAAGGACAAAETMNYWGKGTLVTVSS
On to B9, for which, in the assay with IL-18Rβ ECD, the binding result was “no binding”.

B10: ms_IL18R_VHHα3 (antibody, V domains shown)
VH: B9 VH with Q38R, V50D, L51A, G58R, V63A, N76H, G102A, E108G
In the case of B10, the binding result with IL-18Rβ ECD was “no binding”.

B11: ms_IL18R_VHHα6 (antibody, V domains shown)
VH: DVPLQESGGGSVQPGGSLRLSCAASKSIFSINAMRWHRQAPGKQRELVATFTSSGRINYADSVKGRFTISTDNAKNTIYLQMNSLNPEDTAVYRCNVGLWEDGLWYDYWGQGTQVTVSS
As for B11, the binding result with IL-18Rβ ECD is listed as “no binding”.

B12: ms_IL18R_VHHα10 (antibody, V domains shown)
VH: DVQLQESGGGLVQAGGSLRLSCAASGLPFSSYAMGWFRQAPGKDREFVAGITWSGSSIYYRDSVKGRFTISRDNAKNTVWLQMNDLKPEDTAVYYCAAARRRVGLPLADPREYVYWGQGTQVTVSS
Consider B12, for which the binding result with IL-18Rβ ECD is “no binding”.

B13: ms_IL18R_VHHα5 (antibody, V domains shown)
VH: DVQLQESGGGLVQAGGSLRLSCAASGRTFSNLAMAWFRQAPGKEREFVAAIDWNGDNRLYAASVKGRFTISRDNAKSTMYLQMNSLKPEDTAVYYCAADSTYSTDWYLNPLNRTRYDYWGQGTQVTVSS
With B13, the binding result with IL-18Rβ ECD is “no binding”.

B14: ms_IL18R_VHHα7 (antibody, V domains shown)
VH: B13 VH with R27H, S30N, F37C, A49S, A62Y, D105N, N109D, R115T, D117N, Q124P
Regarding B14, the binding result in the assay with IL-18Rβ ECD is “no binding”.

B15: ms_IL18R_VHHα11 (antibody, V domains shown)
VH: DVPLQESGGGLVQPGQSLRLSCAASGSPIRFSVMGWFQQAPGKGRDLIARITSGGIVYYTDSVKGRFTISKDNAKNTLYLQMNSLNLEDTGVYYCNRLGGALFDWGQGTQVTVSS
Turning to B15, in the assay with IL-18Rβ ECD, the binding result is “no binding”.

B16: ms_IL18R_VHHβ21 (antibody, V domains shown)
VH: DVQLQESGGGLVQAGGSLRLSCAASGITFSPYVMGWYRQAPGKQRELVADMVNGGSTNYADSVKGRFTIFRDTAANTVTLQMNNLKPDDTAVYYCHIMIFGRASWGQGTQVTVSS
Consider B16, for which the binding result in the assay with IL-18Rα ECD was “no binding”.

B17: ms_IL18R_VHHβ16 (antibody, V domains shown)
VH: DVQLQESGGGSVPAGGSLRLSCSASGFTTDDYIIGWFRQAPGKKREGVSCISTTDGSAWYADSVKGRFTISSDNANNTVTLQMNSLLPEDTSVYYCAEVSTGTGVLYCREEFYFGMDSWGKGTPVTVSS
In the case of B17, in the assay with IL-18Rα ECD, the binding result was “no binding”.

B18: ms_IL18R_VHHβ19 (antibody, V domains shown)
VH: DVQLQESGGGLVQAGGSLRLSCAASGIRFNPFRMAWYRQAPGKQRELVAAIDSGGSTDYADSVRGRFTISRDNAKITVSLQMNSLKPEDTAVYYCNTQIFARDYWGQGSQVTVSS
Consider B18, for which the binding result with IL-18Rα ECD and with IL-18Rβ ECD was “no binding” in each case.

B19: IL18R_VHHα8β17 (antibody, V domains shown)
V domain 1: DVQLQESGGGLVQAGGSLRLSCAASGRTFSNDAMGWFRQAPGKEREFVAAVSWSLGMTYNADSVKGRFTISRDNAKNTVYLQMNSLKPDDTAVYYCAAGPDLSDELYGYDYWGQGTQVTVSS
V domain 2: DVPLQESGGGLVQAGGSLRLSCVASGFALDEIAVGWFRQAPGKEREGLSCISSSDGSTLYADSVKGRFTISSDNAKNTVYLQMNSLKPEDTAVYLCAAVRGSCFGRTTHWGQGTQVTVSS
On to B19, for which the binding result with IL-18BP was “no binding”.

B20: ms_IL18R_VHHβ17 (antibody, V domains shown)
VH: B19 V domain 2
For B20, the binding result with IL-18Rα ECD is “no binding”.

B21: IL18R_VHHα8β15 (antibody, V domains shown)
V domain 1: B19 V domain 1
V domain 2: B3 V domain 2
As for B21, the binding result with IL-18BP was “no binding”.

B22: IL18R_VHHα2β17 (antibody, V domains shown)
V domain 1: B2 VH
V domain 2: B19 V domain 2
For the molecule B22, in the assay with IL-18BP, the binding result was “no binding”.

B23: ms_IL18R_VHHα8 (antibody, V domains shown)
VH: B19 V domain 1
Turning to B23, in the assay with IL-18Rβ ECD, the binding result is “no binding”.

B24: ms_IL18R_VHHβ13 (antibody, V domains shown)
VH: DVQLQESGGGLVQPGGSLRLSCAASGISFRVNVLGWYRQAPGKPRELVASISSGDSTNYADSVKGRFTISRDNAKSTVYLQMNNLKPEDTAVYYCNARIFARDNWGQGTQVTVSS
In the case of B24, the binding result in the assay with IL-18Rα ECD is “no binding”.

B25: ms_IL18R_VHHα9 (antibody, V domains shown)
VH: DVQLQESGGGLVQPGESLRLSCTASRSDFSRYTMGWYRQAPGKWRELVARITSGGIPHYADSVKGRFTISRDNAKNTVTLQMNTLQFEDSAVYYCNTVGVALWAWGQGTLVTVSS
Regarding B25, the binding result with IL-18Rβ ECD is listed as “no binding”.

B26: ms_IL18R_VHHβ22 (antibody, V domains shown)
VH: DVPLQESGGGLVQPGGSLRLSCAAPGFALEYYAIGWFRQAPGKEREGLSCVSSSRSGGSTVYADSVKGRFTISRDNAKNTVYLQIDSLKVEDTAVYYCAGAPAYRSHYCRLQADDYTYWGQGTQVTVSS
On to B26, for which, in the assay with IL-18Rα ECD, the binding result is listed as “no binding”.

B27: ms_IL18R_VHHα1 (antibody, V domains shown)
VH: DVPLQESGGGLVQTGGSLRLSCAASGFTFNSYAMGWYQQAPGKKYRELVAHIGSGGSTRYIDSVKGRFTISRDNAKNTVYLQMNSLKPEDTAVYYCNVYGATLRSWGQGTQVTVSS
As to B27, the binding result in the assay with IL-18Rβ ECD is reported as “no binding”.
